{"source": "paper PMC3522573", "about": "(Oncogene, 2012)", "binders": {"B1": {"name": "Gal4(AD)-WD40 (domain or fragment, mouse, UniProt Q3ULA2 303-581, looked up)", "chain": "SKGVYCLQYDDQKIVSGLRDNTIKIWDKSTLECKRILTGHTGSVLCLQYDERVIITGSSDSTVRVWDVNAGEMLNTLIHHCEAVLHLRFNNGMMVTCSKDRSIAVWDMASPTDITLRRVLVGHRAAVNVVDFDDKYIVSASGDRTIKVWNTSTCEFVRTLNGHKRGIACLQYRDRLVVSGSSDNTIRLWDIECGACLRVLEGHEELVRCIRFDNKRIVSGAYDGKIKVWDLMAALDPRAPAGTLCLRTLVEHSGRVFRLQFDEFQIVSSSHDDTILIWD"}}, "assay_in_all_cases": "two-hybrid", "key": {"[1]": {"molecular_target": "T1, Gal4(DBD)-Neh6 (mouse, UniProt Q60795 300-380)", "T1 sequence (looked up)": "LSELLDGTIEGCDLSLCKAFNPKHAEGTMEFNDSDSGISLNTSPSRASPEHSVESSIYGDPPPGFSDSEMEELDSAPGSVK"}, "[2]": {"molecular_target": "T2, Gal4(DBD)-Neh6^ΔDSAPGS (mouse, UniProt Q60795 300-380, Δ373-378 (called ΔDSAPGS))", "T2 sequence (looked up)": "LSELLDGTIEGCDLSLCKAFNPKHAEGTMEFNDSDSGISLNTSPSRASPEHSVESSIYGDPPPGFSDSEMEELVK"}, "[3]": {"molecular_target": "T3, Gal4(DBD)-Neh6^ΔSDSGIS (mouse, UniProt Q60795 300-380, Δ333-338 (called ΔSDSGIS))", "T3 sequence (looked up)": "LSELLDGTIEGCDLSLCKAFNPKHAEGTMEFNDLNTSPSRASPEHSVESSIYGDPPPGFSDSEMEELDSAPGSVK"}}}
{"binder": "B1", "values": [{"measurement": "fold increase in Gal4-driven luciferase activity over either fusion alone", "setting": "[1]", "result": "~3.2", "unit": "fold"}, {"measurement": "fold increase in Gal4-driven luciferase activity with GSK-3β^Δ9 co-expressed", "setting": "[1]", "result": 4, "unit": "fold"}, {"measurement": "fold increase in Gal4-driven luciferase activity with GSK-3β^Δ9 co-expressed", "setting": "[2]", "result": 3.1, "unit": "fold"}, {"measurement": "fold increase in Gal4-driven luciferase activity over either fusion alone", "setting": "[3]", "result": 1.5, "unit": "fold"}]}
